Results from PMC9352680, “A comprehensive thermodynamic model for RNA binding by the Saccharomyces cerevisiae Pumilio protein PUF4”.
Residue numbers refer to the chain shown, from its start. Names and notes keep the numbering of the source.

T1: PUF4 RNA-binding domain (Saccharomyces cerevisiae, UniProt P25339 537-888)
T1 sequence: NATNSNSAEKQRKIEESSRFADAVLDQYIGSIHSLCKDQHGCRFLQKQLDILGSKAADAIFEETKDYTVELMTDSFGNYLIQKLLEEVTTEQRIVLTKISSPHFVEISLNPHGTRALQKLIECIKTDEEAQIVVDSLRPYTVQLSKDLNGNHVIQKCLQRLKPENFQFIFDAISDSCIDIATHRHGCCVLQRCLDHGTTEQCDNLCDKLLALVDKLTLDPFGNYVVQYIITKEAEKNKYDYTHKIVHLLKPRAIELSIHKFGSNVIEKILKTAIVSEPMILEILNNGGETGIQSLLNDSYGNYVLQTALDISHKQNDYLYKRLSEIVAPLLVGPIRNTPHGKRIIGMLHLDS

B1: Ib_S1_P5E.1_K5.1_C5.1_H5.1_A5.1_[T6C]_F5.1_[T8A]_T5.1 (ssRNA)
RNA: UCUCUUUGUAUCAAUAUCUCUU
B2: Ic_S1_P5E.1_K5.1_C5.1_H5.1_A5.1_[A7G]_F5.1_[T8G]_T5.1 (ssRNA)
RNA: UCUCUUUGUAUUGGUAUCUCUU
B3: Id_ii_S2_P5E.2_K5.1_C5.2_[T-1C]_H5.1_A5.1_F5.1_T5.2_[T11A] (ssRNA)
RNA: UUUGAUUAAUAUGAUAUCGUUCUUUCUCCUGUAUUAUUAAAUUCUUUCUCGAUAUCAUAUUAAUCUUU
B4: Id_ii_S2_P5E.2_K5.1_C5.2_H5.1_A5.1_F5.1_T5.2_[T11A]_[A12C] (ssRNA)
RNA: B3 RNA with C29U, A41C
B5: Id_ii_S2_P5E.3_K5.2_C5.2_[C-2T]_[T-1G]_H5.2_A5.1_F5.1_T5.2_[T11A]_[A12C] (ssRNA)
RNA: B3 RNA with C28U, C29G, G31A, A41C
B6: Id_ii_S2_P5E.2_K5.1_C5.2_[T-1C]_H5.1_A5.1_F5.1_T5.2_[A12G] (ssRNA)
RNA: B3 RNA with A40U, A41G
B7: Id_ii_S2_P5E.3_K5.2_C5.2_[C-2G]_H5.2_A5.1_F5.1_T5.2_[T11G]_[A12T] (ssRNA)
RNA: B3 RNA with C28G, C29U, G31A, A40G, A41U
B8: Id_ii_S2_P5E.3_K5.2_C5.2_[C-2G]_H5.2_A5.1_F5.1_T5.2_[T11C]_[A12G] (ssRNA)
RNA: B3 RNA with C28G, C29U, G31A, A40C, A41G
B9: Id_ii_S2_P5E.2_K5.1_C5.2_[T-1C]_H5.1_A5.1_F5.1_T5.2_[A12T] (ssRNA)
RNA: B3 RNA with A40U, A41U
B10: Id_ii_S2_P5E.3_K5.2_C5.2_[C-2G]_H5.2_A5.1_F5.1_T5.2_[T11C]_[A12T] (ssRNA)
RNA: B3 RNA with C28G, C29U, G31A, A40C, A41U
B11: Id_ii_S2_P5E.3_K5.2_C5.2_[C-2G]_[T-1C]_H5.2_A5.1_F5.1_T5.2_[T11C]_[A12C] (ssRNA)
RNA: B3 RNA with C28G, G31A, A40C, A41C
B12: Id_ii_S2_P5E.3_K5.2_C5.2_[C-2T]_[T-1C]_H5.2_A5.1_F5.1_T5.2_[T11A]_[A12C] (ssRNA)
RNA: B3 RNA with C28U, G31A, A41C
B13: Id_ii_S2_P5E.2_K5.1_C5.2_[T-1A]_H5.1_A5.1_F5.1_T5.2_[T11G]_[A12T] (ssRNA)
RNA: B3 RNA with C29A, A40G, A41U
B14: Id_ii_S2_P5E.3_K5.2_C5.2_[C-2G]_[T-1C]_H5.2_A5.1_F5.1_T5.2_[T11C] (ssRNA)
RNA: B3 RNA with C28G, G31A, A40C
B15: Id_ii_S2_P5E.2_K5.1_C5.2_[T-1A]_H5.1_A5.1_F5.1_T5.2_[A12C] (ssRNA)
RNA: B3 RNA with C29A, A40U, A41C
B16: Id_ii_S2_P5E.3_K5.2_C5.2_[C-2T]_[T-1G]_H5.2_A5.1_F5.1_T5.2_[T11G]_[A12T] (ssRNA)
RNA: B3 RNA with C28U, C29G, G31A, A40G, A41U
B17: Id_ii_S2_P5E.2_K5.1_C5.2_[T-1A]_H5.1_A5.1_F5.1_T5.2_[T11G]_[A12C] (ssRNA)
RNA: B3 RNA with C29A, A40G, A41C
B18: Id_ii_S2_P5E.3_K5.2_C5.2_[C-2G]_H5.2_A5.1_F5.1_T5.2_[T11C]_[A12C] (ssRNA)
RNA: B3 RNA with C28G, C29U, G31A, A40C, A41C
B19: Id_ii_S2_P5E.2_K5.1_C5.2_[T-1A]_H5.1_A5.1_F5.1_T5.2_[A12T] (ssRNA)
RNA: B3 RNA with C29A, A40U, A41U
B20: Id_ii_S2_P5E.2_K5.1_C5.2_[T-1A]_H5.1_A5.1_F5.1_T5.2_[T11A]_[A12T] (ssRNA)
RNA: B3 RNA with C29A, A41U
B21: Id_ii_S2_P5E.3_K5.2_C5.2_[C-2T]_[T-1C]_H5.2_A5.1_F5.1_T5.2_[T11C]_[A12C] (ssRNA)
RNA: B3 RNA with C28U, G31A, A40C, A41C
B22: Id_ii_S2_P5E.3_K5.2_C5.2_[C-2T]_[T-1G]_H5.2_A5.1_F5.1_T5.2_[T11A]_[A12T] (ssRNA)
RNA: B3 RNA with C28U, C29G, G31A, A41U
B23: Id_ii_S2_P5E.3_K5.2_C5.2_[C-2G]_[T-1C]_H5.2_A5.1_F5.1_T5.2_[T11A]_[A12T] (ssRNA)
RNA: B3 RNA with C28G, G31A, A41U
B24: Id_ii_S2_P5E.3_K5.2_C5.2_[C-2G]_[T-1C]_H5.2_A5.1_F5.1_T5.2_[T11A] (ssRNA)
RNA: B3 RNA with C28G, G31A
B25: Id_ii_S2_P5E.3_K5.2_C5.2_[C-2T]_[T-1G]_H5.2_A5.1_F5.1_T5.2_[T11G]_[A12C] (ssRNA)
RNA: B3 RNA with C28U, C29G, G31A, A40G, A41C
B26: Id_ii_S2_P5E.3_K5.2_C5.2_[C-2G]_H5.2_A5.1_F5.1_T5.2_[A12C] (ssRNA)
RNA: B3 RNA with C28G, C29U, G31A, A40U, A41C
B27: Id_ii_S2_P5E.3_K5.2_C5.2_[C-2G]_[T-1C]_H5.2_A5.1_F5.1_T5.2_[A12T] (ssRNA)
RNA: B3 RNA with C28G, G31A, A40U, A41U
B28: Id_ii_S2_P5E.2_K5.1_C5.2_H5.1_A5.1_F5.1_T5.2_[T11A]_[A12T] (ssRNA)
RNA: B3 RNA with C29U, A41U
B29: Id_ii_S2_P5E.3_K5.2_C5.2_[C-2G]_[T-1C]_H5.2_A5.1_F5.1_T5.2_[A12C] (ssRNA)
RNA: B3 RNA with C28G, G31A, A40U, A41C
B30: Id_ii_S2_P5E.2_K5.1_C5.2_H5.1_A5.1_F5.1_T5.2_[A12T] (ssRNA)
RNA: B3 RNA with C29U, A40U, A41U
B31: Id_ii_S2_P5E.3_K5.2_C5.2_[C-2T]_[T-1C]_H5.2_A5.1_F5.1_T5.2_[T11C]_[A12G] (ssRNA)
RNA: B3 RNA with C28U, G31A, A40C, A41G
B32: Id_ii_S2_P5E.3_K5.2_C5.2_[C-2G]_[T-1C]_H5.2_A5.1_F5.1_T5.2_[T11A]_[A12C] (ssRNA)
RNA: B3 RNA with C28G, G31A, A41C
B33: Id_ii_S2_P5E.3_K5.2_C5.2_[C-2T]_[T-1C]_H5.2_A5.1_F5.1_T5.2_[T11A]_[A12G] (ssRNA)
RNA: B3 RNA with C28U, G31A, A41G
B34: Id_ii_S2_P5E.2_K5.1_C5.2_[T-1A]_H5.1_A5.1_F5.1_T5.2_[T11A]_[A12C] (ssRNA)
RNA: B3 RNA with C29A, A41C
B35: Id_ii_S2_P5E.2_K5.1_C5.2_[T-1A]_H5.1_A5.1_F5.1_T5.2_[T11A]_[A12G] (ssRNA)
RNA: B3 RNA with C29A, A41G
B36: Id_ii_S2_P5E.2_K5.1_C5.2_[T-1C]_H5.1_A5.1_F5.1_T5.2_[A12C] (ssRNA)
RNA: B3 RNA with A40U, A41C
B37: Id_ii_S2_P5E.3_K5.2_C5.2_[C-2G]_[T-1C]_H5.2_A5.1_F5.1_T5.2_[T11C]_[A12T] (ssRNA)
RNA: B3 RNA with C28G, G31A, A40C, A41U
B38: Id_ii_S2_P5E.3_K5.2_C5.2_[C-2G]_H5.2_A5.1_F5.1_T5.2_[A12T] (ssRNA)
RNA: B3 RNA with C28G, C29U, G31A, A40U, A41U
B39: Id_ii_S2_P5E.3_K5.2_C5.2_[C-2T]_[T-1C]_H5.2_A5.1_F5.1_T5.2_[T11C]_[A12T] (ssRNA)
RNA: B3 RNA with C28U, G31A, A40C, A41U
B40: Id_ii_S2_P5E.3_K5.2_C5.2_[C-2T]_[T-1G]_H5.2_A5.1_F5.1_T5.2_[A12T] (ssRNA)
RNA: B3 RNA with C28U, C29G, G31A, A40U, A41U
B41: Id_ii_S2_P5E.3_K5.2_C5.2_[C-2G]_[T-1C]_H5.2_A5.1_F5.1_T5.2_[T11C]_[A12G] (ssRNA)
RNA: B3 RNA with C28G, G31A, A40C, A41G
B42: Id_ii_S2_P5E.3_K5.2_C5.2_[C-2T]_[T-1C]_H5.2_A5.1_F5.1_T5.2_[A12T] (ssRNA)
RNA: B3 RNA with C28U, G31A, A40U, A41U
B43: Id_ii_S2_P5E.3_K5.2_C5.2_[C-2T]_[T-1G]_H5.2_A5.1_F5.1_T5.2_[A12C] (ssRNA)
RNA: B3 RNA with C28U, C29G, G31A, A40U, A41C
B44: Id_ii_S2_P5E.3_K5.2_C5.2_[C-2T]_[T-1C]_H5.2_A5.1_F5.1_T5.2_[T11A] (ssRNA)
RNA: B3 RNA with C28U, G31A
B45: Id_ii_S2_P5E.3_K5.2_C5.2_[C-2T]_[T-1C]_H5.2_A5.1_F5.1_T5.2_[T11C] (ssRNA)
RNA: B3 RNA with C28U, G31A, A40C
B46: Id_ii_S2_P5E.3_K5.2_C5.2_[C-2T]_[T-1C]_H5.2_A5.1_F5.1_T5.2_[T11A]_[A12T] (ssRNA)
RNA: B3 RNA with C28U, G31A, A41U
B47: Id_ii_S2_P5E.3_K5.2_C5.2_[C-2T]_[T-1G]_H5.2_A5.1_F5.1_T5.2_[T11A] (ssRNA)
RNA: B3 RNA with C28U, C29G, G31A
B48: Id_ii_S2_P5E.2_K5.1_C5.2_H5.1_A5.1_F5.1_T5.2_[T11A] (ssRNA)
RNA: B3 RNA with C29U
B49: Id_ii_S2_P5E.2_K5.1_C5.2_H5.1_A5.1_F5.1_T5.2_[T11G]_[A12C] (ssRNA)
RNA: B3 RNA with C29U, A40G, A41C
B50: Id_ii_S2_P5E.3_K5.2_C5.2_[C-2G]_H5.2_A5.1_F5.1_T5.2_[T11A] (ssRNA)
RNA: B3 RNA with C28G, C29U, G31A
B51: Ib_S1_P5E.1_K5.1_C5.1_H5.1_A5.1_[A7T]_F5.1_[T8G]_T5.1 (ssRNA)
RNA: UCUCUUUGUAUUUGUAUCUCUU
B52: Ib_S1_P5E.1_K5.1_C5.1_H5.1_A5.1_[A7C]_F5.1_[T8G]_T5.1 (ssRNA)
RNA: UCUCUUUGUAUUCGUAUCUCUU
B53: Ib_S1_P5E.1_K5.1_C5.1_H5.1_A5.1_[T6A]_F5.1_[T8A]_T5.1 (ssRNA)
RNA: UCUCUUUGUAUAAAUAUCUCUU

Molecular target: T1, PUF4 RNA-binding domain
Assay: Mg; RNA-MaP; 20 mM Na-HEPES pH 7.4, 30 mM KOAc, 0.75 mM MgCl2, 0.1% Tween-20, 5% glycerol, 0.1 mg/mL BSA, 2 mM DTT; 25 C; 0.0125-409.6 nM protein
Settings: tags: N-His6-TEV cleaved; C-SNAP kept, Cy3B-labelled; label: tethered on chip by stalled RNA polymerase

Binder	Kd [µM]
B1	0.0134
B2	0.0375
B3	0.0031
B4	0.00441
B5	0.000571
B6	0.00227
B7	0.0167
B8	0.0685
B9	0.000992
B10	0.0275
B11	0.133
B12	0.0947
B13	0.00292
B14	0.546
B15	0.00297
B16	0.000685
B17	0.00255
B18	0.0149
B19	0.00327
B20	0.0043
B21	0.0656
B22	0.00037
B23	0.0951
B24	0.394
B25	0.000514
B26	0.016
B27	0.0925

Binder	Kd [µM]
B28	0.00179
B29	0.455
B30	0.00119
B31	0.419
B32	0.381
B33	> 2.3
B34	0.00453
B35	0.0267
B36	0.0015
B37	0.161
B38	0.0117
B39	0.0822
B40	0.000297
B41	0.635
B42	0.0801
B43	0.000994
B44	0.22
B45	0.179
B46	0.149
B47	0.000435
B48	0.00344
B49	0.00171
B50	0.0213
B51	0.0101
B52	0.0191
B53	0.0117
